System: MS2 coat protein
Assay: apparent KD of MS2 coat protein; designed switch direction (-1 OFF switch, 1 ON switch): -1; higher = weaker reporter binding
Outline: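 Each step of the titration lasted 0.8–1.5 h at the lowest concentration and 10–20 min at the highest. The protein, SNAP-549-labelled MS2 coat protein, went from 0.7 or 1.5 nM doubling to 3 µM over RNA switches transcribed on Illumina chips by stalled E. coli RNA polymerase. Normalised cluster fluorescence was curve-fitted, and the per-design median over clusters is given as apparent KD.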

[1] = Eterna round: R95, input ligand: microRNA oligo, concentration not stated
[2] = input ligand: microRNA oligo, concentration not stated
[3] = Eterna round: R95, input ligand: FMN 200 uM
[4] = Eterna round: R95, input ligand: none

| Sequence | apparent KD of MS2 coat protein [1] | apparent KD of MS2 coat protein (input ligand: FMN 200 uM) | apparent KD of MS2 coat protein [2] | apparent KD of MS2 coat protein (input ligand: none) | apparent KD of MS2 coat protein [3] | apparent KD of MS2 coat protein [4] |
| --- | --- | --- | --- | --- | --- | --- |
| CCUAUGUGAGGAUAUCACUGGUCUUCUUUUAUUUUUUACAGUGAGAAGGCACAUGAGGAUCACCCAUGUCGGUG [Ex4 - 3 - 49] (puzzle: Exclusion 4) | 151 nM | – | – | – | – | – |
| AACCUGAGGCUUUGCUUUAGGUGUACAUGAGGAUCACCCAUGUAGGAUAUGGUAGGCAAAGCUUACCAGAAGGACAUUUAGGUU [Mat - Exclusion NG 3 - Mod of JL - D43] (Eterna round: R96, puzzle: Exclusion NG 3) | – | 72.8 nM | 34.3 nM | 41.4 nM | – | – |
| GUCAUACAUGAGGAUCACCCAUGUGAGGAUAUGAGUGGUGCUGCUAGGUAGUAUAGACUCAGAAGGCGCAUGAU [Malcxlusion 1 - Jieux - Exclusion 1] (Eterna round: R97, puzzle: Exclusion 1) | – | 288 nM | – | 105 nM | – | – |
| ACAUGAGGAUCACCCAUGUCCGGCUGGUCCGUCUCGGCUGUCGAGGAUAUAGCUCGGUGUCCGCGCUAGAAGGCGGGAGCUGGC [Aenatbe mod 67] (Eterna round: R96, puzzle: Exclusion NG 3) | – | 91.5 nM | 49.8 nM | 85.1 nM | – | – |
| UACAUGAGGAUCACCCAUGUUUUGUCGUGUAUGGUAUUUAUCUAGGAUAUCAAUUUGUUUAUUUAUGAGAAGGAGAAUAUUAAU [JMF's solution 16] (Eterna round: R96, puzzle: Exclusion NG 3) | – | 39.2 nM | 29.8 nM | 41 nM | – | – |
| GAAAAGGUAGGAUAUACGAAAAAAAAGGGUAGAAAAAAAAGACAUGAGGAUCACCCAUGUAGAAGGACCAAAAG [salish99_ex2_r3_061] (puzzle: Exclusion 2) | 36.5 nM | – | – | – | 76.6 nM | 27.1 nM |
| UCGGCGCGAGGAUAUGCGGUUCCUCCCUCGGGCCGGAGCGUACAUGAGGAUCACCCAUGUAGAAGGCGCGCCGC [Apr-15 SS2-36] (puzzle: Exclusion 2) | 11.7 nM | – | – | – | – | – |
| AGAAAUGCCCAUGACCGCAAGCUUUUUGCUUGUCUUACCACAUGAGGAUCACCCAUGUGACAUGGGCUCCUGAUAAU [Onlaleti] (puzzle: Sensor v3, turn-off variant 2) | 11.4 nM | – | – | – | 14.7 nM | 12.3 nM |
| CUUUUGUGAGGAUAUCAGUGGUAAAACAAUAGUAUUACUACUGAGAAGGCACAUGAGGAUCACCCAUGUUCCUC [Mat - Exclusion 4 - Mod of Omei - D85] (puzzle: Exclusion 4) | 42.7 nM | – | – | – | – | – |
| AAGUACCGGUGAGGAUAUUUAUAAUAGAGCUUUAUGAUAUACAUGAGGAUCACCCAUGUUACUUUAAAGAAGGCAUCGGAUUAA [Mat - Exclusion NG 2 - Mod of JL - D92] (Eterna round: R96, puzzle: Exclusion NG 2) | – | 19.2 nM | 11.1 nM | 18.1 nM | – | – |
| GAUUGACAUGAGGAUCACCCAUGUGAGGAUAUCGGCUGGACCGUGUUGGCCUGCCUCUCGAGAAGGCGCAUAGG [Exclusion 1 V53] (puzzle: Exclusion 1) | 35.6 nM | – | – | – | 49.9 nM | 40.5 nM |
| GUUAAGUGAGGAUAUGGUAAAUUAAUUAUUAAUUAAUUAAUCCAGAAGGCACAUGAGGAUCACCCAUGUAAAUG [Mat - Exclusion 4 - D87] (puzzle: Exclusion 4) | 30.5 nM | – | – | – | 54.6 nM | 31.5 nM |
| GGAUCGAGAGUGAGGAUAUGCUGGUCCUUGGAUCAGCAGAAGGCACAUGAGGAUCACCCAUGUGAUUCCGAUCC [Mat - Exclusion 4 - Eli Mod - D39] (Eterna round: R97, puzzle: Brourd's mod of Exclusion 4) | – | 399 nM | – | 40.6 nM | – | – |
| CCGUACGGAGGAUAUACAUGAGGAUCACCCAUGUGUCCGCGCGUGGGAACACGUAAUAGUAGAAGGCCGUCCGG [jl-ex3-4.78 Brourd automod] (Eterna round: R97, puzzle: Exclusion 3) | – | 491 nM | – | 59.4 nM | – | – |
| GUUGCUACUGAGGAUAUUAUUUUACCCGACUGAUAAGAAGGCAGUACAUGAGGAUCACCCAUGUGGGUAGCCAG [Polaris15] (Eterna round: R97, puzzle: Exclusion 6) | – | 44.1 nM | – | 21.8 nM | – | – |
| AGUGCAUGAGGAUAUGCAAAUCGAAAGACGCAAGGGCAAUCACAUGAGGAUCACCCAUGUAGAAGGCGUCGCAC [Eternabot (Original) Solution 17] (Eterna round: R97, puzzle: Exclusion 2) | – | 30.7 nM | – | 31.9 nM | – | – |
| UGCACCUCAGGAUAUACUAGGUCCAGUAUGGCGAAAGCCGCACAUGAGGAUCACCCAUGUAGAAGGGAGGUGCA [Eternabot (L1) Solution 61] (Eterna round: R97, puzzle: Exclusion 2) | – | 34.1 nM | – | 257 nM | – | – |
| AGGUCACAUGAGGAUCACCCAUGUGAGGAUAUAGACUCAAGAGCUUCGGCUCUCAAGUUUAGAAGGCGCAAUGA [EX1 #52] (Eterna round: R97, puzzle: Exclusion 1) | – | 31.7 nM | – | 31.2 nM | – | – |

| Sequence | apparent KD of MS2 coat protein [1] | apparent KD of MS2 coat protein (input ligand: FMN 200 uM) | apparent KD of MS2 coat protein [2] | apparent KD of MS2 coat protein (input ligand: none) | apparent KD of MS2 coat protein [3] | apparent KD of MS2 coat protein [4] |
| --- | --- | --- | --- | --- | --- | --- |
| CGGUGUAACGCAGGAUAUCAUCGCAACUGACGUUGAGAAGGGCGACAUGAGGAUCACCCAUGUGAUUUCUCAAUAUUAUACAUC [Prohibition 84 - Jieux - Exclusion NG 1] (Eterna round: R96, puzzle: Exclusion NG 1) | – | 212 nM | 36.5 nM | 59.8 nM | – | – |
| AAUCUGCCGUAGGAUAUCUGAAGUUUAUAUAUAAGAGAAGGACGGACAUGAGGAUCACCCAUGUACGAUCCUGC [EX6 B.24] (Eterna round: R97, puzzle: Exclusion 6) | – | 19.9 nM | – | 11.5 nM | – | – |
| ACAUGAGGAUCACCCAUGUGAAAAGAAUGGCUGACACAGAGAUAGGAUAUAUGUGCAUAUCAAACAUAGAAGGGUCAUGACUGG [Deportation 83 - Jieux - Exclusion NG 3] (Eterna round: R96, puzzle: Exclusion NG 3) | – | – | 23 nM | – | – | – |
| CAAAACCUAGGAUAUACAUGAGGAUCACCCAUGUCGGGCCUACGCUAAACGCGCCUCAGUAGAAGGAGGGAAAC [Usasoon] (puzzle: Exclusion 3) | 52.6 nM | – | – | – | 135 nM | 63.2 nM |
| AUAACAAGCUUUUUGUUCGUAGAACAUGAUGCUCGAGUCACAUGAGGAUCACCCAUGUCAACCAGAUAGAUAGUUGA [JR_SV3TOV2_Sub061] (puzzle: Sensor v3, turn-off variant 2) | 162 nM | – | – | – | 41.2 nM | 54.4 nM |
| AGGCGUGCUGAGGAUAUACUACCGGUUGCGAUAGUAGAAGGUAGCACAUGAGGAUCACCCAUGUGGUCAGAUGC [Bequte] (puzzle: Exclusion 6) | 19.1 nM | – | – | – | – | – |
| AAUAAACAAGCGAGAUCCUACAUGAGGAUCACCCAUGUGCUCGUCUUAUAAAGUACUAUCACGAAAGUGAUAGUACA [Mat - Sensor v3 - turn-off var 1 - Eli Mod - D65] (puzzle: Sensor v3, turn-off variant 1) | 41.5 nM | – | – | – | 16.1 nM | 15.3 nM |
| CUGGUGUGAGGAUAUCAAAGACCUCGGGAUAGUACCGAGGAUGAGAAGGCACAUGAGGAUCACCCAUGUAACAA [Armaleti] (puzzle: Exclusion 4) | 22.1 nM | – | – | – | – | – |
| ACUAGAUGAGGAUAUGCAUGUUUUCAUGUUCUUCUAGAUUAACAUGAGGAUCACCCAUGUAGAAGGCGUCUUAU [Exclusion 2 - 30] (puzzle: Exclusion 2) | 18.4 nM | – | – | – | – | – |
| CCCUCACUUGAGGAUCACCCAAGUCAGGAUAUCUCACCCGUCCUGCAAGACGGGUCACAGAGAAGGGACUAAAA [Araatra] (Eterna round: R97, puzzle: Exclusion 1) | – | 69 nM | – | 21.9 nM | – | – |
| GAUUGACAUGAGGAUCACCCAUGUGAGGAUAUCGGCUGGACCGUGUUGGCUUCCGUCGCGAGAAGGCGCAUAGG [Exclusion 1 V42] (puzzle: Exclusion 1) | 43.5 nM | – | – | – | 61 nM | 46.4 nM |
| CUGAGUAGUCAGGAUAUGCUGUACAAAAGUACAGCAGAAGGGAUUACAUGAGGAUCACCCAUGUGAACUUCAUG [)mei Ex6 B21] (Eterna round: R97, puzzle: Exclusion 6) | – | 681 nM | – | 652 nM | – | – |
| ACCUCACAUGAGGAUCACCCAUGUCAGGAUAUCUUUUAUUGCAGCAAUCCUGUCGCUGAGAGAAGGGACAUUAA [EX1 #26] (Eterna round: R97, puzzle: Exclusion 1) | – | 30.7 nM | – | 26.5 nM | – | – |
| GCCGUCAGUGUGAGGAUAUGCCUAUGGAUACGUAGGCAGAAGGCACAUGAGGAUCACCCAUGUCCUAAGACGGC [JL-BMX4-4.33 Eli mod] (Eterna round: R97, puzzle: Brourd's mod of Exclusion 4) | – | 146 nM | – | 190 nM | – | – |
| CAUGUCUGAGGAUAUCGUUUUUUGUACAUGAGGAUCACCCAUGUCCUAUUUUUUAUAUUACGAGAAGGCAGUGGAU [JR_E5_Sub091] (puzzle: Exclusion 5) | 34.9 nM | – | – | – | – | – |
| CCGGCGUGGUGCGGUUGUCGUUCGACAUGAGGAUCACCCAUGUAGGAUAUGCGCGUGGUCGCGCCGCAGAAGGGCAUCGUUUGG [Random, 15% A] (Eterna round: R96, puzzle: Exclusion NG 3) | – | 10.7 nM | 10.7 nM | 14.5 nM | – | – |
| AGACAUGAGGAUCACCCAUGUAGUGGUCCUGGUACGCGAACGUAGGAUAUAUACUGGAUUCCAAUGUAGAAGGACGACACCGCG [Tetege] (Eterna round: R96, puzzle: Exclusion NG 3) | – | 90 nM | 112 nM | 149 nM | – | – |
